The experiment concerns the target His-tagged WRN (E84A) (human) (UniProt Q14191).
Chain of UniProt Q14191 (Q14191 whole entry E84A): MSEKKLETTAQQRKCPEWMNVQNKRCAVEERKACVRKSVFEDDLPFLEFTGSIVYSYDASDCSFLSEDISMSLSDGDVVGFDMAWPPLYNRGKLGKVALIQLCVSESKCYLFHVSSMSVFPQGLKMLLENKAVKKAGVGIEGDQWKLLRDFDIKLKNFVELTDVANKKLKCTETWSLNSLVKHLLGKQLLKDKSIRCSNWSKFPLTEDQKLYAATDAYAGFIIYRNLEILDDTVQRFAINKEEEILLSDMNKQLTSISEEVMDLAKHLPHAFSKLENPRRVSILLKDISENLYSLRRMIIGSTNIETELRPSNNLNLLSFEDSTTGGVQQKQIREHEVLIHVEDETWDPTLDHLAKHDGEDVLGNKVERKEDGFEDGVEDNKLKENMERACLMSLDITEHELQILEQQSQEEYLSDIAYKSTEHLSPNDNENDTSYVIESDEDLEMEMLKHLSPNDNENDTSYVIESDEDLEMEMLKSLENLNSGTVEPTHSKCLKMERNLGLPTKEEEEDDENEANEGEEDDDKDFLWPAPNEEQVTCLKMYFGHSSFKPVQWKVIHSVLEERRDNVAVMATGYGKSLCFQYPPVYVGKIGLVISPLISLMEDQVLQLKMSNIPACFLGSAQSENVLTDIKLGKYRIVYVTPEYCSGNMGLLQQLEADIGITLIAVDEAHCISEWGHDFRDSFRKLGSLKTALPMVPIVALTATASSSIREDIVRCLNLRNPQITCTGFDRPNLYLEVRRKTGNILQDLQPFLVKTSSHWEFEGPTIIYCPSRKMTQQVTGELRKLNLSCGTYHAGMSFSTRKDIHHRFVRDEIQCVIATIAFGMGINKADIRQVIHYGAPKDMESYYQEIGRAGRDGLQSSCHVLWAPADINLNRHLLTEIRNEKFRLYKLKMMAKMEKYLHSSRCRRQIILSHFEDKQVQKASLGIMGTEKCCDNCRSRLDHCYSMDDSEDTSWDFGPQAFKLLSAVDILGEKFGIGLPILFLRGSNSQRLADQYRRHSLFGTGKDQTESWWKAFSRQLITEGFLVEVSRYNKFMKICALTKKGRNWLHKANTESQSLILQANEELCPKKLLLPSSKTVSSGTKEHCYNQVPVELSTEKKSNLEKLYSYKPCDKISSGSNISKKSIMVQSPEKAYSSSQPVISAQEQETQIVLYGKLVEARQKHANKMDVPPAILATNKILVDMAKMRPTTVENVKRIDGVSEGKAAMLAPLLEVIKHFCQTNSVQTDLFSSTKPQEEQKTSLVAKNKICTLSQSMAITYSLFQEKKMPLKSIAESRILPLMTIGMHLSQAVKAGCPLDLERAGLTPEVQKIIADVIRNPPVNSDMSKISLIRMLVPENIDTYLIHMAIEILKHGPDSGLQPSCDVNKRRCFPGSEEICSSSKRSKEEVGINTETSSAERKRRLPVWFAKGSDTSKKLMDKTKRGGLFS

Take “DNA-PKcs, the catalytic subunit of DNA-PK (from UniProt P78527 1-4128) (enzyme)”: the unwinding of the telomeric D-loop substrate by WRN (E84A) (3.3 nM) preincubated with DNA-PKcs (16.7 nM), native gel; 3.3% unwound in the absence of DNA-PKcs amounted to 66%.

The record behind these values is article PMC2898018.
